# Values quoted from earlier work as cited in patent publication US11819552B2, “Antibody-drug conjugates targeting uPARAP” (RIGSHOSPITALET, priority 2016, dated 2023).
# How the values were obtained:
# Conditions in all cases: Jürgensen et al., 2014; cited from earlier work
# [1] = tested on: other members of the mannose receptor family
# [2] = target: T1, uPARAP (Homo sapiens, UniProt Q9UBG0)
# T1 sequence (Q9UBG0 31-1479): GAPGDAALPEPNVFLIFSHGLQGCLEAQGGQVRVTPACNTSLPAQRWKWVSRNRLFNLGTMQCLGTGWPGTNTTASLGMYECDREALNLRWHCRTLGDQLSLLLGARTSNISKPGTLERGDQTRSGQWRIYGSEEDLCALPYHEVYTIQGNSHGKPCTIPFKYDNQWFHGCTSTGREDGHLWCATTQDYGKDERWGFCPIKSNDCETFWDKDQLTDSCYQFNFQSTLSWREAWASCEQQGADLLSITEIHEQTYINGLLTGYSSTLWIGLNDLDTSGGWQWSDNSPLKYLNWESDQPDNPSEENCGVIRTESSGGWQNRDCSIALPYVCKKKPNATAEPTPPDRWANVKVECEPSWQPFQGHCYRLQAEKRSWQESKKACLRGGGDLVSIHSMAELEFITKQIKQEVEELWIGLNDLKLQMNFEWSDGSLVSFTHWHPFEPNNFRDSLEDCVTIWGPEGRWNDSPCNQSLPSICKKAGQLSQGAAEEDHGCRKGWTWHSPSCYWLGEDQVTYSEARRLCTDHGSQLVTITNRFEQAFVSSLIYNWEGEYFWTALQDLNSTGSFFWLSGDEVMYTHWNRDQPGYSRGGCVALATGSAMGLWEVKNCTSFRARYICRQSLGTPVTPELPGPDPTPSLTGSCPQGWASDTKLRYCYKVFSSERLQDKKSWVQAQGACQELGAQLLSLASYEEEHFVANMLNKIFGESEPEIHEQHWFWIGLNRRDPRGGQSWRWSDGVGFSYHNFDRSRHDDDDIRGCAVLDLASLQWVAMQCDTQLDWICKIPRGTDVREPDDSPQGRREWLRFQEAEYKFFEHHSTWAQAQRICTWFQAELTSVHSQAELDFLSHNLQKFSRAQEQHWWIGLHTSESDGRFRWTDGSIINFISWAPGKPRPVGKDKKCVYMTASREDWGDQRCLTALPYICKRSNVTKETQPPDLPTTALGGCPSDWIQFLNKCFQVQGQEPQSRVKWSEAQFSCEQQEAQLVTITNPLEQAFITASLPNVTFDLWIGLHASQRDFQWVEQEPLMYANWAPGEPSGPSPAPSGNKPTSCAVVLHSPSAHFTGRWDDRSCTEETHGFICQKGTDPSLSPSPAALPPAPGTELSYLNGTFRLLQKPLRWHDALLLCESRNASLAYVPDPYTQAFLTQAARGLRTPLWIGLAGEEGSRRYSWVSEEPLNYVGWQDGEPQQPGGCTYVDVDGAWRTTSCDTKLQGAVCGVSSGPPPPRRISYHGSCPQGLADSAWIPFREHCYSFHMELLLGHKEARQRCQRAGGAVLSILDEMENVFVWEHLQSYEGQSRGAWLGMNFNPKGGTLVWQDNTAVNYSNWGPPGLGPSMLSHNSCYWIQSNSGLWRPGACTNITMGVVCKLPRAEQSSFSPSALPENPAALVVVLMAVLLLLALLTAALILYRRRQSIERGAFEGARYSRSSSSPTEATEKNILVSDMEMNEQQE
# [3] = tested on: uPARAP
molecule,measurement,setting,value
"mAb 5f4: mouse monoclonal IgG1K anti-uPARAP antibody, epitope in the FN-II domain (antibody, V domains shown) VL: DIVMTQSQKFMSTSLGARVSITCKASQNVGSNVVWYQQKLGQSPKALIYSASSRFSGVPDRFTGSGSGTDFTLTISNVQSEDLAEYFCQQYNTYPLAFGAGTKLELK VH: DVQLQESGPGLVKPSQSLSVTCTVTGYSITNAYYWNWIRHFPGNKLEWLGYIHSSGDTNYNPSLKSRISITRDTSKNQFFLQLNSVTTEDTATYYCARSPYYSNYFPYWGQGTLVTVSA",Binding to artificial family members with FN-II domain switched with that of uPARAP,[1],capable of binding
same,Binding to other mannose receptor family members in wildtype form,[1],not capable of binding
same,Binding to wildtype uPARAP,[2],capable of binding
same,Binding to uPARAP with FN-II domain swapped with that of other family members,[3],not capable of binding
